According to patent US20170355744A1 (published 2017):

Biological target: T1, Untagged Naglu (human, UniProt P54802 24-743)
T1 construct: also called untagged Naglu protein; alpha-N-acetylglucosaminidase
T1 sequence: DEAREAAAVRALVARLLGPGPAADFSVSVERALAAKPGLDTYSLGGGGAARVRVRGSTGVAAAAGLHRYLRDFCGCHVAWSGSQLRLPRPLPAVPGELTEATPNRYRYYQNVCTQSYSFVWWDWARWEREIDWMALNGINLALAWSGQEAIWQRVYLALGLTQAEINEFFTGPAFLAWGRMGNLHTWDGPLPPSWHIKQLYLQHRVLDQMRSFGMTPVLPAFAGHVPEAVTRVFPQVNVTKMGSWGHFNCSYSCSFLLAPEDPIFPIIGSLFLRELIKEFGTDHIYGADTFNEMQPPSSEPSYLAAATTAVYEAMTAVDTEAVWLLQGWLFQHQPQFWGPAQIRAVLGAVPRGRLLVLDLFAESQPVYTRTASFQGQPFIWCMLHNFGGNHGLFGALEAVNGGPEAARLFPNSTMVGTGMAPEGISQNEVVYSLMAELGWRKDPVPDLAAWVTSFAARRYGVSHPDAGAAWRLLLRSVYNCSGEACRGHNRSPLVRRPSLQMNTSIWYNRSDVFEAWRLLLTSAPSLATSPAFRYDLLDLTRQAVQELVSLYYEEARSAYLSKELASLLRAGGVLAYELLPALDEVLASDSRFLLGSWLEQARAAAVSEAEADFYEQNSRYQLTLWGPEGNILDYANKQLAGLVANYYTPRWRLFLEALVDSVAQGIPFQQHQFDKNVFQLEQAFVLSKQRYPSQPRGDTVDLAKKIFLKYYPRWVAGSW
Assay: IGF2R competitive binding assay (displacement of biotinylated IGF-II from plate-coated IGFIIR domains 10-13)
Protocol: To measure the ability of the Naglu fusion protein constructs to bind to the IGF-II receptor a competitive binding assay is carried out. A fragment of the IGFIIR involved with IGF-II binding (domains 10-13, named protein 1288) is coated onto 96-well plates. Biotinylated IGF-II is incubated with the receptor in the presence of increasing amounts of competitors: either control IGF-II (non-biotinylated), or fusion protein sample (containing an IGF-II-derived GILT epitope tag). Receptor-bound biotinylated IGF-II is detected with streptavidin conjugated to horseradish peroxidase (HRP) and a chemiluminescent HRP substrate. The ability of the fusion protein to inhibit binding of biotinylated IGF-II to the IGFIIR is calculated from inhibition curves and reported as an IC₅₀ value (concentration required to achieve 50% binding inhibition).
For the assay, IGFIIR is coated in a white Reacti-bind plate (Pierce, Cat#437111) at 0.5 μg/well in a volume of 100 μl (69.6 nM/per well) in coating buffer. The plate is sealed and incubated overnight at room temperature. The plate is then washed 3× with wash buffer, blocked with blocking buffer and then washed again 3× with wash buffer (300 μl/well).

B1: fragment of the IGFIIR involved with IGF-II binding (domains 10-13, named protein 1288) (receptor, UniProt P11717 1367-1989, looked up)
chain: TECSFKDGAGNSFDLSSLSRYSDNWEAITGTGDPEHYLINVCKSLAPQAGTEPCPPEAAACLLGGSKPVNLGRVRDGPQWRDGIIVLKYVDGDLCPDGIRKKSTTIRFTCSESQVNSRPMFISAVEDCEYTFAWPTATACPMKSNEHDDCQVTNPSTGHLFDLSSLSGRAGFTAAYSEKGLVYMSICGENENCPPGVGACFGQTRISVGKANKRLRYVDQVLQLVYKDGSPCPSKSGLSYKSVISFVCRPEARPTNRPMLISLDKQTCTLFFSWHTPLACEQATECSVRNGSSIVDLSPLIHRTGGYEAYDESEDDASDTNPDFYINICQPLNPMHGVPCPAGAAVCKVPIDGPPIDIGRVAGPPILNPIANEIYLNFESSTPCLADKHFNYTSLIAFHCKRGVSMGTPKLLRTSECDFVFEWETPVVCPDEVRMDGCTLTDEQLLYSFNLSSLSTSTFKVTRDSRTYSVGVCTFAVGPEQGGCKDGGVCLLSGTKGASFGRLQSMKLDYRHQDEAVVLSYVNGDRCPPETDDGVPCVFPFIFNGKSYEECIIESRAKLWCSTTADYDRDHEWGFCRHSNSYRTSSIIFKCDEDEDIGRPQVFSEVRGCDVTFEWKTKVVCPP
notes: domain: domains 10-13; Coated on the plate at 0.5 ug/well; also called IGF2R
- binding result: no binding
